Assay results published in US20140221620A1 (PERSEUS PROTEOMICS, published 2014).

Key:
Assay in all cases: Western blot, E. coli lysate, reducing gel
[1] = target: T1, CDH3 protein Fragment 3 (positions 237 to 461 of SEQ ID NO: 38) (human, UniProt P22223 237-461)
T1 construct: Expressed in E. coli Rosetta 2; the lysate was run on a reducing gel and blotted; not shown: N-terminal fusion part supplied by the vector pCold TF (His tag, trigger factor, linker to the KpnI site)
Experimental: (§1) The above-described Escherichia coli lysate, in which each of the above-mentioned CDH3 protein fragments had been expressed, was charged to 5%-20% gradient gel (Bio-Rad) under reductive conditions, followed by performing electrophoresis. Thereafter, using a blotting device (Bio-Rad), the resultant was transferred on Immobilon P membrane (Millipore). The transfer membrane was lightly washed with TBS-T (0.05% Tween 20, TBS), and it was then shaken in […] BSA-containing TBS for 1 hour. […] The obtained mixture was shaken for 1 hour. Thereafter, the reaction product was washed with TBS-T, and a HRP-anti-mouse IgG antibody (GE Healthcare Biosciences) diluted with 10% Block Ace-containing TBS-T was added thereto, followed by shaking the obtained mixture for 1 hour. Subsequently, the reaction product was washed with TBS-T. Using ECL-Plus (GE Healthcare Biosciences), color development was detected with X-ray film RX-u (Fujifilm Corporation) in accordance with the instructions provided by the manufacturer.

[2] = target: T2, CDH3 protein Fragment 4 (positions 349 to 550 of SEQ ID NO: 38) (human, UniProt P22223 349-550)
T2 construct: Expressed in E. coli Rosetta 2; the lysate was run on a reducing gel and blotted; not shown: N-terminal fusion part supplied by the vector pCold TF (His tag, trigger factor, linker to the KpnI site)
T2 sequence (P22223 349-550 limits assumed): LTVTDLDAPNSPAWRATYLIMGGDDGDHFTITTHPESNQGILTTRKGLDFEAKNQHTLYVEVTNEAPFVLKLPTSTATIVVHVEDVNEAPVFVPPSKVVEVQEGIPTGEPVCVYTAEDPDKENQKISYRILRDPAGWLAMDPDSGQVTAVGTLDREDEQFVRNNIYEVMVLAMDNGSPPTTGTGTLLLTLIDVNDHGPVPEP
Experimental: as §1

[3] = target: T3, CDH3 protein Fragment 2 (positions 132 to 348 of SEQ ID NO: 38) (human, UniProt P22223 132-348)
T3 construct: Expressed in E. coli Rosetta 2; the lysate was run on a reducing gel and blotted; not shown: N-terminal fusion part supplied by the vector pCold TF (His tag, trigger factor, linker to the KpnI site)
T3 sequence (P22223 132-348 limits assumed): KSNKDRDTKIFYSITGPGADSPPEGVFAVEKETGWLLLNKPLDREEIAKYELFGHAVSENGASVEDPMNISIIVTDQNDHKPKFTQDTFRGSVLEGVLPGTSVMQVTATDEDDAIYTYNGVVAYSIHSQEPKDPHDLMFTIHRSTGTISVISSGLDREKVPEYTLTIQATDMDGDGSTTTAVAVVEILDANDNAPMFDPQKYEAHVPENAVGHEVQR
Experimental: as §1

[4] = target: T4, CDH3 protein Fragment 5 (positions 462 to 654 of SEQ ID NO: 38) (human, UniProt P22223 462-654)
T4 construct: Expressed in E. coli Rosetta 2; the lysate was run on a reducing gel and blotted; not shown: N-terminal fusion part supplied by the vector pCold TF (His tag, trigger factor, linker to the KpnI site)
T4 sequence (P22223 462-654 limits assumed): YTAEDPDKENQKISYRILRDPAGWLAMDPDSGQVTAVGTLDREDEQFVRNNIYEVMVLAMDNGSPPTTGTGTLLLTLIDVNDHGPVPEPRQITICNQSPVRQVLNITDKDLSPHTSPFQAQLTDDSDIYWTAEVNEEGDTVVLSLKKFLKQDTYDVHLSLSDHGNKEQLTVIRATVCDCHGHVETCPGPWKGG
Experimental: as §1

Measured: binding result

T1 sequence (P22223 237-461 limits assumed): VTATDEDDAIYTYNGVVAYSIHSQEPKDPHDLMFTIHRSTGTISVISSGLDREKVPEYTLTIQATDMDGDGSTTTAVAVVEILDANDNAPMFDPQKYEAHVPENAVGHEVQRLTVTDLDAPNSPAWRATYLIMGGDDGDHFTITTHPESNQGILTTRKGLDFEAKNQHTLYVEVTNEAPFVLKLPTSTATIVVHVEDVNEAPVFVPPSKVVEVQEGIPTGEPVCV

B1: mouse antibody PPAT-057-17 (antibody, V domains shown)
VH: QVKLEESGPVLVAPSQSLSITCTVSGFSLTSYGVHWIRHPPGKGLEWLGVIWAGGNTIYNSALMSRLNISKDNSKSQVFLKMNSLQSDDSAMYYCAKPHYGDYAGFYALDHWGQGTSVTVSS
VL: DVQITQSPSYLAASPGETININCRASKRISKYLAWYQEKPGKTNRLLIYSGSTLQSGIPSRFSGSGSGTDFTLTISSLEPEDFAMYYCQQHNEYPWTFGGGTKLEIK
notes: Mouse monoclonal IgG from a hybridoma; kappa L chain primers were used
no binding: all assays above
